One may read the EC50 as the concentration at which the effect is half-maximal.

The values below come from patent publication US20180185504A1.

The target in experiment [1] is mouse PRLR construct with an HA tag on HEK293/mPRLR cells (mouse) (UniProt Q08501). Description: FACS on HEK293/mPRLR cells.
In experiment [2] the target is human prolactin (PRL) (human) (UniProt P01236). Description: ELISA: dimeric PRLR (3.38 pM to 200 nM) on plate-coated human PRL (1 µg/mL), HRP anti-Fc-gamma detection. On the technique in general: An ELISA detects its analyte on a solid surface through an enzyme-linked reagent.
Experiment [3] concerns the target human prolactin receptor (PRLR) on cells (human) (UniProt P16471). Description: cell-based or functional assay.

mouse PRLR construct with an HA tag on HEK293/mPRLR cells (mouse), sequence (Q08501 20-608): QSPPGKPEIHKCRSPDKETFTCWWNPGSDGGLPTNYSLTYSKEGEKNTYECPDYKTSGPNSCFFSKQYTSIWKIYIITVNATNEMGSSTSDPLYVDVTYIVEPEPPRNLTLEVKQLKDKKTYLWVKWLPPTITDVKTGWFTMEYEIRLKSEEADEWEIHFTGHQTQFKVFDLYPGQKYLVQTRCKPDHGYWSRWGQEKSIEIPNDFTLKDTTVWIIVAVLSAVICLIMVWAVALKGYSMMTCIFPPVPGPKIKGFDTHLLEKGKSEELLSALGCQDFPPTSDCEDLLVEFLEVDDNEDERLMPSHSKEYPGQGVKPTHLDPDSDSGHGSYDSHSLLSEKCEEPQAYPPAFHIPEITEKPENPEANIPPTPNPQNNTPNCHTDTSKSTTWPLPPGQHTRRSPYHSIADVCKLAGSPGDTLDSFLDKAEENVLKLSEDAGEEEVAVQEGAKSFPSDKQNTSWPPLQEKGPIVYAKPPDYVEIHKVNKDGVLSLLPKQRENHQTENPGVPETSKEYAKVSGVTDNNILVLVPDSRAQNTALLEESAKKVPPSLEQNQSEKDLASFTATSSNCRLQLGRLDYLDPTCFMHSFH
human prolactin receptor (PRLR) on cells (human), sequence (P16471 25-622 limits assumed): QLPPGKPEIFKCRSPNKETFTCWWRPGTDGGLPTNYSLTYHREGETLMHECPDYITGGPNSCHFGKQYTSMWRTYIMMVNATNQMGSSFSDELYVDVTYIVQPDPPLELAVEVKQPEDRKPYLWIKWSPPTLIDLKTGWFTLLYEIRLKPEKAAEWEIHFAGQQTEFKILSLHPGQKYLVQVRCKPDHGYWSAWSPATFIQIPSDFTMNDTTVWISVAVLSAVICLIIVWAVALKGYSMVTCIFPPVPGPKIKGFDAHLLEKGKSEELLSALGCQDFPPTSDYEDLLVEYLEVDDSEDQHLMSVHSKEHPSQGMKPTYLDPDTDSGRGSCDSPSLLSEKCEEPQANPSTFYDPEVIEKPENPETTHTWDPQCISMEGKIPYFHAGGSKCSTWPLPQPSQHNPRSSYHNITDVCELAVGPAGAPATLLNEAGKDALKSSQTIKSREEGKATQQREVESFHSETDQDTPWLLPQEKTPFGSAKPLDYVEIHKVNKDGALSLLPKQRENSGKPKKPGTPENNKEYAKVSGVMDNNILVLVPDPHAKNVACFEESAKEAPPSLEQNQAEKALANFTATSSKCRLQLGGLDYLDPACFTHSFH
human prolactin (PRL) (human), sequence (P01236 29-227 limits assumed): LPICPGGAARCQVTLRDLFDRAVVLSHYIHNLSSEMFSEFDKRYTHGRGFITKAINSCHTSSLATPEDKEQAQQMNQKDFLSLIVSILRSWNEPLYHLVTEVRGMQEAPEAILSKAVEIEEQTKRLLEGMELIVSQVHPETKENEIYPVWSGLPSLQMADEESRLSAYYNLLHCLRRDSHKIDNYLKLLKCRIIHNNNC

Isotype Ctrl I (antibody) displayed an FACS Cell Binding (Fold Above Background) in experiment [1] of 1 fold. Substance “dimeric form of cynomolgus monkey (Macaca fascicularis) PRLR (Example 12 ELISA) (Fc fusion)” returned a concentration for a half-maximal effect (EC50) in experiment [2] of 5.7 nM. For the substance “human prolactin (PRL) (from UniProt P01236 29-227) (ligand)”, the EC50, STAT5-luciferase reporter in HEK293/PRLR/STAT5-Luc cells in experiment [3] stood at 2.1 nM.
